This series can be described thus: soluble fraction after stress (log2 fold change); higher = more stays soluble; pooled small domains, quantitative proteomics. The settings on record: stress: 50 degC. In outline: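 Quantitative proteomics served as the high-throughput read-out for pooled custom libraries of small protein domains. Each was stressed at 50°C. Aggregation propensity is expressed as the base-two log fold change in soluble protein after stress. A higher value means a larger share of the protein remains in solution.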

Here are results for 69 sequences from the domain aggregation screens of Martell et al. (2025).

Turning to “HMPDITAAVARTLQALRADRGWSLDQLAARSGVSKGVLVALEQGRSNPNLATLARIGDAFGVPVTLLVDL”, the “soluble fraction (log2)” value is -0.543.
For the sequence “HMDNEIRIPLPSLQRDGFSIGTREDDGSQLVRIMSAGSFGGMIRSFRLPEGMRIEGAKWEGEIVSIRL”, the “soluble fraction (log2)” value came out at 0.0774.
As for “HMTEKIRLTVDEAGKNQRVDKYISTLLTQFSRSSIKTWIETGNILLDNTRTKPRTLLSPGQVIDIQPRFED”, the figure is -0.643; as for “HMTETPDDLLAALKKNKKAQATFDAFSPSNKKEYILWITEAKTEATRTKRLETAIEWMSEGKARNW”, -0.222; as for “HMSANVSMEEALRRTSQAHSLAGKWMRRVLQMAQGRDLIEQMQREAQEAHLPELIGMSVQLEFIRRG”, -0.11.
Turning to “HMSQSMEVLYTDLTDKDAAAIVEKLEEEKIPYQLEDQGTTILVPPGVKYTTRLKLAAEDLPKG”, the “soluble fraction (log2)” value came out at 0.000352.
The result for “HMDDLFGNAIEMFNNQRYDMTYELLVQLLSETPNNEKAWQLLADTKFMLGDYDDALHIVGKAAK” reads -0.89.
With “HMTVDIADALRVLGLSDAPDWSDVRAAHRRAIVRTHPDAGGSAGDAARVNQAFDLLRKISGNGERPIPG”, the “soluble fraction (log2)” value worked out at 0.154.
As for “HMRAVFEQLRIGQTLAGVVKAQEKGFSLVEIDGQTVAMRLPHPAAVGDTLRLRFAGHMPQAVFLLES”, the figure is -0.561; as for “HMQETKDEGAQVLLNKINALVAAVQGQIITPEEAAIKLATDGDLDLDVDARVAAIEEFNKKLSEAQNN”, 0.0497; as for “HMRIVQTDYRNFLSQVESGAVRSVQIDETQIRYTALDSGGKEIVYNTGKVDDPGLVNRLYDAGVEFSQVIP”, 0.0657.
The result for “HMLPLGSNEYETAVIKHLASGVQDADEIQRLTGIDQTSLNTALTMLELAGTIRPLGNNHWTL” reads 0.167; that for “HMKIVQDIAFSDFLNEVEKDNVLDVNIKGDLINGNLADGRKFKTYTPYDPNLIEKLSNKNVTINVEPYN”, 0.198; that for “HMISDEELLVSTKKEIMSLATVLTKTDKKDDAIAIMKEYDPAANPNRIKDVNKAKELLERLQKLG”, -0.125.
As to “HMEGDAFAFTGDIQKDLLSITAVHPMRREAVDALIAKAGASWAIVEKLLAHGELTEAKHDGHLFYLRKF”, the “soluble fraction (log2)” value is -0.81.
The result for “HMEREQPFAVTEAYRGMRLDRFLQAMLPRMSRAAIQDAIDNRVRLGSGRAAKASLRPAIGDTVFFGQRI” reads -0.822.
The result for “HMTKIAFPQMLNKYRLQKNLTMEQLAEEVGKTKSTISKWEAGTRSPKIYEIEEIAKYFGVEPQTMMF” reads -0.453; that for “HMAEEFESMTEARRLELARLVDSRGFVRVTDAAEELGVSDVTIRGDLSELERRGLLTRVHGGAMPVT”, 0.0215; that for “HMPERMLEPLLNGNEIMKVTQLQPGPKVGLIRDALLQAQISGDVTDTESAKAFVQDYAKRNI”, 0.06.
The result for “HMETGELQQILEDVFSKNIGIVQDKREAAFSILMGMIMAKSRGRADGALVSTLLKKKLTEFLATSDQVR” reads 0.0929; that for “HMEFENIEQRKQYWSDLYRELKAGQDAYAKELKKGTEGYTQDELDILKEFTDEAKKQMEAAGVEATDEFAS”, -0.187.
As for “HMKEVVKVTITPSEKLKSQYPDALVSIDGKFYDLGILNNPVEFYMDKDHKISIIWSTAELVESFRI”, the “soluble fraction (log2)” value is -0.00922.
As for “HMKKPANLISEDRMVEVLYDVIIINTAKGVNKQLLQNNINNPLNYIYRSHGIDSLQFAESNAYYTS”, the figure is -0.371.
As for “HMGHASPGNREALQFALERHQARAAEFAEKAGLSIANASTKFKQLWEQGFLMRNESVADSGGVEFLYQR”, the figure is -0.0221; as for “HMTGLFSPTEQTRHSKTGATLYSVKLAERIERNAFQSLKKRAKEHDGYYSSFTRSFLFDTPEDAEAFRGT”, -0.27.
The result for “HMLDLNEVEFYAIENQLKENLKIDSKRFYELVPLIKGYQEDDIIQVLRWLIDNNRIIRHKDESLTWHS” reads -1.61.
“HMKTVLDSLLRILDSKELDIVVLRHIVGLTLTEIAKEKDMKKGTVFWMYNRAVKKLRLESERMGL”: the “soluble fraction (log2)” value is -2.11.
For “HMTPIELIEKTIELIENERKVQKLQQKELALKADIPFPTYKDFIYKKRASLENILKLFIALRLF”, the “soluble fraction (log2)” value is -0.342.
As for “HMLTRSTVNVETGTAAIGLGKLYGVYDMSRKGLKYSFSVDSDAMTKVMEMLLPLGIKSLTVEPPS”, the figure is -1.57; as for “HMNSVAASLREISIKVSGTEDADKVSRLQELSQMPKLDASGIAEANTLLEQLRAKYGDLGLSVDTARGRIV”, 0.284; as for “HMVEREYRLEVPPEAEGKRLDQFLVNQPVQLSRSQVQHLIQNGLVLVNAKTRRSSYRVHTGDIIEMQVPA”, 0.327.
The result for “HMQIAEAESLGQRLLQQSINNIVGRDEAITEERLNRVLSQYSLTGRDELMAQIGLGNRNSSLVAKAMYDI” reads 0.0632.
As for “HMGFSERLAQAMSHAGYTQGGLAKAVGMAQSSVNKLLNNANSSRKTVEIASVLGVRPEWLSTGEGDML”, the figure is 0.00207; as for “HMGVREIIVQFLEQFDKPKSVQEIVEYVLRYRNTTENSIRSTMYSGSQFRQFDNGYFGLSDKSYPNEYIYA”, -0.603.
With “HMVAGGTVSRKLSIETGLPKRKSLIGSWLDQNSVWHNIISVRHRNGYGDGVNYGFYLRSLLTSEGNLAW”, the “soluble fraction (log2)” value is -0.114.
As for “HMVTIEEMMDRLLTRVQRAVNMSFSEFSGEAKEKVEVIVSFLALLELVKQGAVDVLQHENFSDIRIENT”, the figure is -0.857; as for “HMGDITALMPGKVIQIIVKEGQEIKVGDPLIVIESMKMENTISSEVNGTIKSINIQIDDNVQFDQVLFTV”, -2.1; as for “HMGDDVRKNILDVLSKFERVDITDLDSLELVRFYLEIEDIFDIEIKENDFYRLKSVDSIVDYIRNKSFF”, -1.2.
As for “HMTVGEAHLEEVYLKVLKQVEEQGTALIRTTDVETGRPAAGIRRRYMRGTLPDEWVAKFEALPGWTWAPG”, the figure is -0.879.
As for “HMEKPTEITLSNRVSVQELAEKMYVSETDIIRTLFLDGRIININQVLDIDTAIRVGEQLGIKIKII”, the figure is -0.496.
With “HMDIEHREMKLQKLVITADSPLVGKTLKESNVRQRYNFMVVGVEEGQKNLTMINPNRRFEVGDIVWVVGEE”, the “soluble fraction (log2)” value was -0.0892.
As for “HMTPADEAGNDLDIGQTVKILRRVSEGQYEVSYRGTTWQARALNAQAAVEPSFAVIGGKEGNILLVHL”, the figure is 0.122; as for “HMEQISDEDTLRKMVNEVLDNNQTQLEQYKSGKTNLIGFFVGQTLKKSAGKANPSIVNKLVNEEIYI”, 0.00998; as for “HMNVAVGNSKLVGVAGERAYFVNGVGAAARTLSLQVGDALPTGEKVRRIERDGVTMTGASGDVRLSVLP”, 0.0813.
The result for “HMKFTPPTLEQIKNEMLLKTDEYNADIQSDRFFTYYDSNGWMVGKNKMKKFLVSLVAVFAATSA” reads -0.446.
As for “HMDYTGIPQSLLDLMKKDNIMPMQIQRAVAERNYYPVDTPISNYDPMFIEAKLVGAWDQVLNVISHLDLP”, the figure is -0.649.
As for “HMNSLTVPDITNRTLAEASQVLLDMGLTPIPDAVAKDGVGDDVVYAQSPPPNVGAREGDVVTITYNPA”, the “soluble fraction (log2)” value was determined as 0.156.
The result for “HMTNPPITTEARNLVVEQLKELNALHPEKARELADSYKKEFNVPKVIGHITEARHGEFLALAISKIDES” reads -0.144.
As for “HMESKPLTPSEIKKLRMDANMTQAGLAEVLGMTVKAVEAWESGRNIPSGAADKILRVMQKHPSVIGMMQS”, the figure is 0.156; as for “HMDDINVSNSKNIVPNVTGHTGSKAIPVLENLGLDVQYSGFGKVTNQSIPAGTRFKKGETIYLMLE”, 0.0979; as for “HMGEQVFSRKDLAINGNDLKAVFGWPPGPKYREALDQLFHWVLEDPARNRRETLLAYLHSLYD”, -0.0199.
Consider “HMEVENAQLLARLTPQEHRVFERVVAGLSNREIGSEMDISIKTVEVHRARVMRKLEANSVAELVRFHIHN”, for which the “soluble fraction (log2)” value is -2.25.
The result for “HMQAPIFMNETDGKWYFREKYLNDNHEIAYRVHPEGYDQMEDALRNSVNALNEFAAEMKELRKQV” reads -0.0683; that for “HMARIDYHAMDSDDLSFSEGELLEIYDKPGSFWWKGRSLVSGDEGDIPS”, -0.157; that for “HMTPQVTVPDVTGQSFASAKQVLESLGLTVKQQGSTGENDKVIGQNPTSGNADKGATITLTTQDS”, 0.343.
On to “HMNIEDFKDKVKELKQYTYQELVEDVKLKTDRADVILPASKIYLEAMQQAKVDSIIVPKVGLAEGVAR”, for which the “soluble fraction (log2)” value is 0.0593.
The result for “HMEQYYVFFAGGMTIGTKEWYESILPENIATSYDDILEGKMMPASLEQIEFYNSHKDYDLYHLFYML” reads -4.11.
As for “HMGKKYVPGMAVKLSAVPLYAASTSKVPSTHVTGTYYLWDDEVVRGRLRITNLKSRVGISGQVTGWIDKDR”, the figure is -1.23; as for “HMDLPDFTSRERDILARVVQGDSNERIAASLGVSVSTVKTHIGNILRKTGQTNRVRLIVWATRHL”, -1.72.
The result for “HMPNQLLELVEMEIRDLLNEYEFPGDDTPIIQGSALKALEDPMGPWGDKIMDLMDAVDSYIPDPE” reads -0.581; that for “HMKDRDISNAVLNILSKDSDHNYNYKQIASVLGVKDPFVRKRIVSVLAQLTKNGQLEEISRGKYQIKN”, -0.618; that for “HMKEQLITVYVSGAVARPGLYELPAGIRAQEAVEAAGGFTEAANHEKVNLAKKLKDGSQVNVPALK”, -0.0032.
Consider “HMKSDEGEIKKIVEEIISKNASVVEDYKKGKEVALQFLVGQGMKATKGSANPELLKKIILENI”, for which the “soluble fraction (log2)” value is 0.506.
The result for “HMKKATYDVMVREALVSFKKKGATLQSIKKKIKADYAIEANATAVKSAIQKGMEAGSIRKSYDLYFFMD” reads -2.12.
The result for “HMLPLHFIEIVSLKKIDTLTKRKELINYAFSKNEKTYIYKLAFKKKSELDNLYKEINLFNEIINIDIRHS” reads -0.615; that for “HMSGSILVQVSATDLNIRKGPGTNYGTTGKYTGKGTFTIVETRSGQGSNAGWGKLKSGAGWISLDYAKR”, -1.38; that for “HMSDGIPDLRNLNFLSPQEGDYLNESDRVFGVTINGDGQAYPLRIVNAHEMVNDTLGGEPISLM”, 0.16.
The result for “HMGSLNDQVMKYIDALPSAFNKRELDFLIERGVKEFALNGEYLEKAIINEYKLTADTYHRER” reads 0.0641; that for “HMDNWYIAFNSFLSQNKLTAKNVSELTGLSKPTIDSYKQGKRKPTDENMQIIKDKLGFNISEILYN”, -0.265.
